From patent US20090221476A1 come the findings set out here.

The assay deals with tubulin purified on a phosphocellulose column (mouse). Briefly: cell-based or functional assay.
Chain of tubulin purified on a phosphocellulose column (mouse) (P68369 whole entry, chain 1 of 2): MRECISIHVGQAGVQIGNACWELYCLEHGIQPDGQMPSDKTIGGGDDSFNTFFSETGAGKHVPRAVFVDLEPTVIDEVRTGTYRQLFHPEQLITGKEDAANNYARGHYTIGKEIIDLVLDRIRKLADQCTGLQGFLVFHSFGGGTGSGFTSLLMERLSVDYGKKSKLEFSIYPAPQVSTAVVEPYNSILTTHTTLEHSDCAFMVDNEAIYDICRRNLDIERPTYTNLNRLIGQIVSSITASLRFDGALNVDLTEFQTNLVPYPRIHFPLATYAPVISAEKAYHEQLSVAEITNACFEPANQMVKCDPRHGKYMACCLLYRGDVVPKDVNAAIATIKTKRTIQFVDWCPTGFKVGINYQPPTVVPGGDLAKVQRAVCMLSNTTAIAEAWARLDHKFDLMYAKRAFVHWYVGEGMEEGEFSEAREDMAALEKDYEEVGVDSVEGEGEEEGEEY
Chain of tubulin purified on a phosphocellulose column (mouse) (Q9ERD7 whole entry, chain 2 of 2, further chain): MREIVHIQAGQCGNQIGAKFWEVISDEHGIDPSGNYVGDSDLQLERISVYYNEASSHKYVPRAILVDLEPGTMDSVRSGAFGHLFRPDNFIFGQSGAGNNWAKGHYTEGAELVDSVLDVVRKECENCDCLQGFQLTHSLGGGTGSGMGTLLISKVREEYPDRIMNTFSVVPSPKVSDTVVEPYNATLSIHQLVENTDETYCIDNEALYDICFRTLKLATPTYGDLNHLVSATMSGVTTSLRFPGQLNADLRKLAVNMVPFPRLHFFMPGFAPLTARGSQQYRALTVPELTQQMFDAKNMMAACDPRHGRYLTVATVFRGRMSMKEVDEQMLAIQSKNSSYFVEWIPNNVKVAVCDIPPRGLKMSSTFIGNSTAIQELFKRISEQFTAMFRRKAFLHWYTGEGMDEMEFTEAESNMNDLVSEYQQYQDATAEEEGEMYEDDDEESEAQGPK

For the substance “Neurofilament Light subunit-Tubulin Binding Site 1 (NFL-TBS1) (peptide)”, the inhibition of tubulin polymerization (% inhibition at 100 µM) is 30. “Neurofilament Light subunit-Tubulin Binding Site 2 (NFL-TBS2) (peptide)” showed a T98G cells in phase G1 after 48 hours with 10 µM peptide (FACS; 39% in untreated cultures) (% of cells in G1) of 61 and an inhibition of tubulin polymerization (% inhibition at 100 µM) of 100. As to “Neurofilament high subunit-Tubulin Binding Site (NFH-TBS) (peptide)”, the inhibition of tubulin polymerization (% inhibition at 100 µM) came to 30.

“Neurofilament Medium subunit-Tubulin Binding Site (NFM-TBS) (peptide)” displayed an inhibition of tubulin polymerization (% inhibition at 100 µM) of 30.
